Experimental data reported in patent US12241090B2, “Methods and systems for converting precursor cells into gastric tissues through directed differentiation” (CHILDREN'S HOSPITAL MEDICAL CENTER, priority 2014, dated 2025).

Tests used:
[1] = system: hPSC-derived definitive endoderm (DE) cultures; assay: Endoderm patterning of hPSC-derived DE cultures with growth factors/antagonists, qPCR and immunofluorescence; format: cell-based, human
Description: Following DE induction, cells were treated for three days with growth factors/antagonists in RPMI 1640 with 2.0% dFBS. […] RA (2 μM; Sigma Aldrich) is added on the final day. Three-dimensional growth and antral specification. Posterior foregut spheroids were embedded in Matrigel (BD Biosciences) as previously described^10, 12 and subsequently grown in Advanced DMEM/F12 (Invitrogen) supplemented with N2 (Invitrogen), B27 (Invitrogen), L-glutamine, 10 μM HEPES, penicillin/streptomycin, and EGF (100 ng ml^−1; R&D Systems). For antral specification, RA and noggin were added for the first three days of three-dimensional growth. For endocrine cell specification, the EGF concentration is lowered to 10 ng ml^−1 at day 30.
The media was changed every day.
All tissues were fixed in 4% paraformaldehyde for either one hour at room temperature for frozen processing or overnight at 4° C. for paraffin processing. For frozen sections, tissue was protected in 30% sucrose overnight at 4° C., then embedded in OCT (Tissue-Tek), and cut at 10 μm. For paraffin sections, tissue was processed through a graded ethanol series, followed by xylene, and then embedded in paraffin and cut at 7 μm. Tissue culture cells were fixed for 15 minutes at room temperature and stained directly. For staining, frozen slides were thawed to room temperature and rehydrated in PBS, while paraffin slides were deparaffinized and subjected to antigen retrieval. Slides were blocked in 5% normal donkey serum (Jackson Immuno Research) in PBS plus 0.5% Triton-X for 30 minutes at room temperature. Primary antibodies (listed in Methods Table 1) were diluted in blocking buffer and incubated overnight at 4° C. Slides were washed in PBS and incubated with secondary antibody for one hour at room temperature, and coverslips were mounted using Fluoromount-G (Southern Biotech). Confocal images were captured on a Nikon A1Rsi inverted confocal microscope.

[2] = system: hPSC-derived foregut spheroids; assay: Fundus specification protocol: Wnt signaling at days 6-9 of gastric organoid differentiation, qPCR; format: cell-based, human; details: Wnt3a at 100 ng/mL and 500 ng/mL
Description: Next, the function of Wnt signaling in the regulation of fundus-antrum patterning at days 6-9 of the gastric organoid differentiation protocol was tested. Addition of Wnt3a (at 100 ng/mL and 500 ng/mL) had no effect on spheroid gene expression, but it […] expression of the Wnt target gene Axin2. Thus, the effects of the small molecule CHIR99021 (CHIR; 2 uM) were tested. CHIR99021 stimulates Wnt signaling in a receptor-independent fashion.
Analysis was performed using the ΔΔCT method.

[3] = DE cultures after three days, even in the presence of WNT/FGF

| Molecule | CDX2 expression [1, 3] | foregut marker SOX2 expression [1, 3] | BMP target genes MSX1/2, qPCR ([1]; response to noggin) | effect on spheroid gene expression [2] | expression of the Wnt target gene Axin2 [2] |
| --- | --- | --- | --- | --- | --- |
| Noggin: BMP antagonist / BMP inhibitor (R&D Systems) (protein, UniProt Q13253 28-232, looked up) Noggin: QHYLHIRPAPSDNLPLVDLIEHPDPIFDPKEKDLNETLLRSLLGGHYDPGFMATSPPEDRPGGGGGAAGGAEDLAELDQLLRQRPSGAMPSEIKGLEFSEGLAQGKKQRLSKKLRRKLQMWLWSQTFCPVLYAWNDLGSRFWPRYVKVGSCFSKRSCSVPEGMVCKPSKSVHLTVLRWRCQRRGGQRCGWIPIQYPIISECKCSC | repressed | induced | suppressed | – | – |
| Wnt3a: recombinant WNT3A, Wnt ligand (R&D Systems) (protein, UniProt P56704 19-352, looked up) Protein Wnt-3a: SYPIWWSLAVGPQYSSLGSQPILCASIPGLVPKQLRFCRNYVEIMPSVAEGIKIGIQECQHQFRGRRWNCTTVHDSLAIFGPVLDKATRESAFVHAIASAGVAFAVTRSCAEGTAAICGCSSRHQGSPGKGWKWGGCSEDIEFGGMVSREFADARENRPDARSAMNRHNNEAGRQAIASHMHLKCKCHGLSGSCEVKTCWWSQPDFRAIGDFLKDKYDSASEMVVEKHRESRGWVETLRPRYTYFKVPTERDLVYYEASPNFCEPNPETGSFGTRDRTCNVSSHGIDGCDLLCCGRGHNARAERRREKCRCVFHWCCYVSCQECTRVYDVHTCK | – | – | – | no effect | did induce |
